Reference: article PMC3507856, “Two glutamic acid residues in the DNA-binding domain are engaged in the release of STAT1 dimers from DNA” (BMC Cell Biology, 2012)
Where a chain is given by its changes, count along the chain named. In names and notes the source's numbering stands. Several values for one entry are separate records, joined by “and”; a condition that tells them apart may be missing. Equal values may be shown once.

T1: endogenous (native) STAT1 of HeLa cells (human (endogenous in HeLa)), P42224
T1 chain: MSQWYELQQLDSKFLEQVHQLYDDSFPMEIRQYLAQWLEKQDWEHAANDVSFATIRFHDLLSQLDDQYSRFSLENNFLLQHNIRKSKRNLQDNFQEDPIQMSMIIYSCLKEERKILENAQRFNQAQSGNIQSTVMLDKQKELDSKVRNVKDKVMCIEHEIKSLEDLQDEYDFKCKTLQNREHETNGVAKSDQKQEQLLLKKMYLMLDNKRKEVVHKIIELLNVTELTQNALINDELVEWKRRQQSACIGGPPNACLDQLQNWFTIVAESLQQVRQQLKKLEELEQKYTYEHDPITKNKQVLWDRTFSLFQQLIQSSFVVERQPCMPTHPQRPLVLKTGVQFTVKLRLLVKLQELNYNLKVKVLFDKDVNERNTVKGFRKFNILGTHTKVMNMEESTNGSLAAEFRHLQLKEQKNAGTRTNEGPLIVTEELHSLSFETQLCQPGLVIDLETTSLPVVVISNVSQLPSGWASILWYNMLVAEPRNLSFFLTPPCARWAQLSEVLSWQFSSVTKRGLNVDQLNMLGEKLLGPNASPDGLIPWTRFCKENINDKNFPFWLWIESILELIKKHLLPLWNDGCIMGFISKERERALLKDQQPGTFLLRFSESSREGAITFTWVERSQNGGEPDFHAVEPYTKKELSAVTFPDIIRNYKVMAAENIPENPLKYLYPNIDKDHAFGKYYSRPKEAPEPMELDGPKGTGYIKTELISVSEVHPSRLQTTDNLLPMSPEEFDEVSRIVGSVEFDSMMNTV

B1: STAT1-WT-GFP (wild-type human STAT1 fused to green fluorescent protein) (natural protein, UniProt P42224 1-746, looked up)
chain: MSQWYELQQLDSKFLEQVHQLYDDSFPMEIRQYLAQWLEKQDWEHAANDVSFATIRFHDLLSQLDDQYSRFSLENNFLLQHNIRKSKRNLQDNFQEDPIQMSMIIYSCLKEERKILENAQRFNQAQSGNIQSTVMLDKQKELDSKVRNVKDKVMCIEHEIKSLEDLQDEYDFKCKTLQNREHETNGVAKSDQKQEQLLLKKMYLMLDNKRKEVVHKIIELLNVTELTQNALINDELVEWKRRQQSACIGGPPNACLDQLQNWFTIVAESLQQVRQQLKKLEELEQKYTYEHDPITKNKQVLWDRTFSLFQQLIQSSFVVERQPCMPTHPQRPLVLKTGVQFTVKLRLLVKLQELNYNLKVKVLFDKDVNERNTVKGFRKFNILGTHTKVMNMEESTNGSLAAEFRHLQLKEQKNAGTRTNEGPLIVTEELHSLSFETQLCQPGLVIDLETTSLPVVVISNVSQLPSGWASILWYNMLVAEPRNLSFFLTPPCARWAQLSEVLSWQFSSVTKRGLNVDQLNMLGEKLLGPNASPDGLIPWTRFCKENINDKNFPFWLWIESILELIKKHLLPLWNDGCIMGFISKERERALLKDQQPGTFLLRFSESSREGAITFTWVERSQNGGEPDFHAVEPYTKKELSAVTFPDIIRNYKVMAAENIPENPLKYLYPNIDKDHAFGKYYSRPKEAPEPMELDGPKGTGYIKTELISVSEVHPSRLQTTDNLLPMSPEEFDEVSRIVGSVEFDSM
modifications: tyrosine-phosphorylated (phospho-Tyr701) after stimulation of cells with IFNγ
notes: also called STAT1-GFP; GFP-tagged wild-type STAT1; source: HeLa cells, transfected (pEGFP-N1-STAT1), IFNγ-stimulated, in whole cell lysate; not shown: GFP, C-terminal, kept
B2: STAT1-E411A expressed in STAT1-negative U3A cells (natural protein, human, UniProt P42224 1-746, looked up)
chain: B1 chain with E411A
modifications: tyrosine-phosphorylated after stimulation of cells with IFNγ
notes: STAT1, human; glutamic acid 411 changed to alanine; also called E411A mutant; mutant STAT1; source: U3A cells, transfected, IFNγ-stimulated, in cell extract
B3: wild-type STAT1 expressed in STAT1-negative U3A cells (natural protein, human, UniProt P42224 1-746, looked up)
chain: B1 chain
modifications: tyrosine-phosphorylated after stimulation of cells with IFNγ
notes: STAT1, human; also called STAT1-WT; source: U3A cells, transfected, IFNγ-stimulated, in cell extract
B4: STAT1-E411A-GFP (natural protein, human, UniProt P42224 1-746, looked up)
chain: B1 chain with E411A
modifications: tyrosine-phosphorylated (phospho-Tyr701) after stimulation of cells with IFNγ
notes: STAT1, human; also called E411 mutant; source: HeLa cells, transfected (pEGFP-N1-STAT1 with point mutation), IFNγ-stimulated, in whole cell lysate; not shown: GFP, C-terminal, kept
B5: endogenous (native) STAT1 of HeLa cells, P42224 1-750 (natural protein)
chain: T1 chain
modifications: here or on the partner: tyrosine-phosphorylated (phospho-Tyr701) after stimulation of cells with IFNγ; tyrosine-phosphorylated (phospho-Tyr701) after stimulation of cells with IFNγ

Key:
[1] = target: the molecule itself; assay: native gel or EMSA; whole cell lysates of HeLa cells (IFNγ 45 min, then staurosporine for the durations indicated) incubated in vitro with 32P-labelled M67 DNA (single high-affinity GAS site); STAT1 dimers seen as DNA-bound complexes on a 4% acrylamide gel at 4°C; homo- and heterodimers told apart by mobility
[2] = target: the molecule itself; assay: native gel or EMSA; extracts of IFNγ-stimulated U3A cells incubated in vitro with 32P-labelled DNA containing a tandem GAS site; unchallenged or challenged for 30 min with a 750-fold molar excess of a single unlabelled GAS site (M67); dimeric and tetrameric STAT1 seen as DNA-bound complexes
[3] = target: T1, endogenous (native) STAT1 of HeLa cells …; assay: native gel or EMSA; whole cell lysates of HeLa cells (IFNγ 45 min, then staurosporine for the durations indicated) incubated in vitro with 32P-labelled M67 DNA (single high-affinity GAS site); STAT1 dimers seen as DNA-bound complexes on a 4% acrylamide gel at 4°C; homo- and heterodimers told apart by mobility; conditions: remark: other sources report otherwise

Binder	stoichiometry N [1]	stoichiometry N [2]	further results
B1	2		
B2		2 and 4	
B3		2 and 4	
B4	2		
B5			stoichiometry N [3]: 2
